Data as given in IntAct's records for PubMed 31515488.

B1: UBX domain-containing protein 2B (Homo sapiens), Q14CS0 (parent)
chain: MAEGGGPEPGEQERRSSGPRPPSARDLQLALAELYEDEVKCKSSKSNRPKATVFKSPRTPPQRFYSSEHEYSGLNIVRPSTGKIVNELFKEAREHGAVPLNEATRASGDDKSKSFTGGGYRLGSSFCKRSEYIYGENQLQDVQILLKLWSNGFSLDDGELRPYNEPTNAQFLESVKRGEIPLELQRLVHGGQVNLDMEDHQDQEYIKPRLRFKAFSGEGQKLGSLTPEIVSTPSSPEEEDKSILNAVVLIDDSVPTTKIQIRLADGSRLIQRFNSTHRILDVRNFIVQSRPEFAALDFILVTSFPNKELTDESLTLLEADILNTVLLQQLK
partner: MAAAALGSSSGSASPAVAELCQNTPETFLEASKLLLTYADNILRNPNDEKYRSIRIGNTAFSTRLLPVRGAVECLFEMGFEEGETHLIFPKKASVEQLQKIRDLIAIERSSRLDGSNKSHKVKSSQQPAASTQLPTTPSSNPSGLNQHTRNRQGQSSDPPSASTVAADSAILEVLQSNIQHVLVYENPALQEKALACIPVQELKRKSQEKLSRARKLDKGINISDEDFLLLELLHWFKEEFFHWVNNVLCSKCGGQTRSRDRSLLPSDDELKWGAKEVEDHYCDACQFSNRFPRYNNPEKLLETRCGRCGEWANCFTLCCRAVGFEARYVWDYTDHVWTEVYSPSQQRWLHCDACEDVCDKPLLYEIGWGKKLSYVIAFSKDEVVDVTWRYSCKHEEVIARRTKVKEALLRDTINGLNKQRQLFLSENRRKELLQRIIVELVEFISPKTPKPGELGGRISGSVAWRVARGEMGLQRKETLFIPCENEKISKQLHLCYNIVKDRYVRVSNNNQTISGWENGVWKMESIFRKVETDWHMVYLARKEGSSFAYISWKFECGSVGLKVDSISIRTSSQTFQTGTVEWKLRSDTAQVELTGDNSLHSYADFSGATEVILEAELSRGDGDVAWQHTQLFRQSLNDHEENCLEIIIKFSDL
B2: X antigen family member 3 (Homo sapiens), Q8WTP9 (parent)
chain: MIWRGRSTYRPRPRRSVPPPELIGPMLEPGDEEPQQEEPPTESRDPAPGQEREEDQGAAETQVPDLEADLQELSQSKTGGECGNGPDDQGKILPKSEQFKMPEGGDRQPQV
partner: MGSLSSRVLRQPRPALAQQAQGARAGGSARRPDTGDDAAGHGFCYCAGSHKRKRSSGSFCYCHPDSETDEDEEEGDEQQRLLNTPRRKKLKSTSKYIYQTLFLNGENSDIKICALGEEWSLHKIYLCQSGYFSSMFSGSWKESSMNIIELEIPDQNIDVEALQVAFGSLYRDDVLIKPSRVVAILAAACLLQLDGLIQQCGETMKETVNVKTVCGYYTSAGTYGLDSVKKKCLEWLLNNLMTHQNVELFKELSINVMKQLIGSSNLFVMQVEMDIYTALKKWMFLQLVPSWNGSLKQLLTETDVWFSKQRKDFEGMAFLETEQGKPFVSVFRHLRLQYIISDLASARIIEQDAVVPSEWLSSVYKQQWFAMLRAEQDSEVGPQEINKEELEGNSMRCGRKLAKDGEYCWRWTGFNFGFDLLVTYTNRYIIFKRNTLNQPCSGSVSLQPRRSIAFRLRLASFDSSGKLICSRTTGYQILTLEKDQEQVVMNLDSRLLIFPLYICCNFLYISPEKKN
B3: Inactive peptidyl-prolyl cis-trans isomerase FKBP6 (Homo sapiens), O75344 (parent)
chain: MGGSALNQGVLEGDDAPGQSLYERLSQRMLDISGDRGVLKDVIREGAGDLVAPDASVLVKYSGYLEHMDRPFDSNYFRKTPRLMKLGEDITLWGMELGLLSMRRGELARFLFKPNYAYGTLGCPPLIPPNTTVLFEIELLDFLDCAESDKFCALSAEQQDQFPLQKVLKVAATEREFGNYLFRQNRFYDAKVRYKRALLLLRRRSAPPEEQHLVEAAKLPVLLNLSFTYLKLDRPTIALCYGEQALIIDQKNAKALFRCGQACLLLTEYQKARDFLVRAQKEQPFNHDINNELKKLASCYRDYVDKEKEMWHRMFAPCGDGSTAGES
partner: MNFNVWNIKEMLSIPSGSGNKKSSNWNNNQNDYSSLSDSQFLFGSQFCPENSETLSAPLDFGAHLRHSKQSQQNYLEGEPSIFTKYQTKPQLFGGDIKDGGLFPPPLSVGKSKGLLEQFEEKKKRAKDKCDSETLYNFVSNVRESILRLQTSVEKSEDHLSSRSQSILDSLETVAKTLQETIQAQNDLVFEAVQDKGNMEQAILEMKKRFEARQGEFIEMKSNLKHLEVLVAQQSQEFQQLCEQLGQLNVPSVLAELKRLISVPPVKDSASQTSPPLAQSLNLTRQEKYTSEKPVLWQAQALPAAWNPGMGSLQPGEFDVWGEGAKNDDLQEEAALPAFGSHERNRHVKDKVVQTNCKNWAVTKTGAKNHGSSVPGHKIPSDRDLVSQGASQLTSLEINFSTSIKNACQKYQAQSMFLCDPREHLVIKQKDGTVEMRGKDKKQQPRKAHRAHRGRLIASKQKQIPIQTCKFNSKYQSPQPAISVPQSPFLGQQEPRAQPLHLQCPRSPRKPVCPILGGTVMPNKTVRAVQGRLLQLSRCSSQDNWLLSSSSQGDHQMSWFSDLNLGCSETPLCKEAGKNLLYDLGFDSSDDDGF
B4: Microtubule-associated tumor suppressor candidate 2 (Homo sapiens), Q5JR59-3 (parent)
chain: MGHCCCKPYNCLQCLDKTNESALVKEKELSIELANIRDEVAFHTAKCEKLQKEKEELERRFEDEVKRLGWQQQAELQELEERLQLQFEAEMARLQEEHGDQLLSIRCQHQEQVEDLTASHDAALLEMENNHTVAITILQDDHDHKVQELMSTHELEKKELEENFEKLRLSLQDQVDTLTFQSQSLRDRARRFEEALRKNTEEQLEIALAPYQHLEEDMKSLKQVLEMKNQQIHEQEKKILELEKLAEKNIILEEKIQVLQQQNEDLKARIDQNTVVTRQLSEENANLQEYVEKETQEKKRLSRTNEELLWKLQTGDPTSPIKLSPTSPVYRGSSSGPSSPARVSTTPR
partner: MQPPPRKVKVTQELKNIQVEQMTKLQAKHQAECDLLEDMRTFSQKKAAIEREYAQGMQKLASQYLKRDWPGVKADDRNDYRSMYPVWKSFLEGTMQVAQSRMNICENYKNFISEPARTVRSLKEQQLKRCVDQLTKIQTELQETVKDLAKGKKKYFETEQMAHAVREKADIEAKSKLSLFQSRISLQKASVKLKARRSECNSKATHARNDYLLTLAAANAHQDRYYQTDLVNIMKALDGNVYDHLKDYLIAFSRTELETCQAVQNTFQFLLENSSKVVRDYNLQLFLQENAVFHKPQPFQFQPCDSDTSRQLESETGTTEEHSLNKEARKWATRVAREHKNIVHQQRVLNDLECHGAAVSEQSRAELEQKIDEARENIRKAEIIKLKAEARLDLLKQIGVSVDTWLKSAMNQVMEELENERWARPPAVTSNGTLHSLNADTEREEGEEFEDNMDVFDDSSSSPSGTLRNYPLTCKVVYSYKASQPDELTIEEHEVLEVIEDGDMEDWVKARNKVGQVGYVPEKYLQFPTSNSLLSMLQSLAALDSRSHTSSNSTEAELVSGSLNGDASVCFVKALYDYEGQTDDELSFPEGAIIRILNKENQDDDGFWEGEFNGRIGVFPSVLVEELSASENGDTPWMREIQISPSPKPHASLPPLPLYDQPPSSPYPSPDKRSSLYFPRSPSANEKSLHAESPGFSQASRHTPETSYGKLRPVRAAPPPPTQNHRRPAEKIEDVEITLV

Variants of: B1
Conditions: with ngly1_human NGLY1, Q96IV0

Variant | effect of a mutation on the interaction
D109A | with no effect

Variants of: B2
Conditions: with gmcl1_human GMCL1, Q96IK5

Variant | effect of a mutation on the interaction
I92F | with no effect

Variants of: B3
Conditions: with iho1_human IHO1, Q8IYA8

Variant | effect of a mutation on the interaction
H287N | with no effect
R175Q | with no effect

Variants of: B4
Conditions: with fcsd2_human FCHSD2, O94868

Variant | effect of a mutation on the interaction
A89V | with no effect
